Experiment [1] relates to differentiating ES cells (J1). In words: Confocal microscopy of vWF and Oct-4 staining in differentiating ES cells. The conditions noted are these: for vWF expression (confocal microscopy): FIG. 15A, treated differentiating ES cells; for Oct-4 levels of differentiating cells (confocal microscopy): FIG. 15B. The format is cell-based, mouse. Here is the method:
Mouse embryonic stem cells (J1) (gift from Bevin Engelward, Mass. Institute of Technology, Cambridge, Mass.) were grown in DMEM with 2 mM L-glutamine (GIBCO, Carlsbad, Calif.) adjusted to contain […] sodium pyruvate, 10 mM nonessential amino acids and 1.5 g/L sodium bicarbonate, with 15% fetal bovine serum (Hyclone, South Logan, Utah) and supplemented with 100 units/mL penicillin G (Sigma, St. Louis, Mo.), 100 μg/mL streptomycin sulfate (Sigma), 30 mM beta-mercaptoethanol (Sigma) and 1000 units/ml murine leukemia inhibitory factor, LIF (Chemicon, Temecula, Calif.). The cells were plated in 10 cm^2 cell culture dishes, coated with 0.1% gelatin B (Sigma) and grown at 37° C. in a 5% CO2 humidifier incubator. The culture medium was changed every 2 days. The cells were subcultured at a split ratio of 1:10 when they reached 80% to 90% confluency, using a 0.25% trypsin-EDTA solution (Sigma). To induce formation of embryoid bodies and differentiation into endothelial cells, J1 cells were plated at a density of 1.25×10^5 cells/100 mm dish, or 3×10^4 cells/6 wells and cultured in the absence of LIF. Fresh media was replenished every 2 days.
(§1) Heparinase III (Hep-III) was prepared as described previously (Godavarti, R., et al. (1996) Biochemistry 35, 6846-52). Heparinase I (Hep-I) was a generous gift of Momenta Pharmaceuticals (Cambridge, Mass.). Sodium chlorate and heparin were purchased from Sigma and Cambrex BioWhittaker (East Rutherford, N.J.), respectively. To enzymatically modify the HSGAG glycome signature of the cells, cells were washed with phosphate buffer saline (PBS) and incubated with Hep-I or Hep-III for 30 minutes every day at 37° C. in serum free DMEM. Digested HSGAG residues were removed by washing the cells, and cells were then fed with fresh media. In an additional experiment, cells were cultured with medium containing sodium chlorate, which blocks the sulfation of HSGAGs. In a reversal experiment, heparin was added to the culture to overcome the chlorate induced synthetic block. Treated cells were analyzed for differentiation into endothelial cells between day 3 and day 15. Hep-III was added to the cells at a concentration of 2.5 μg/mL, Hep-I was added at a concentration of 1.5 μg/mL, sodium chlorate at 10 mM and heparin (20 μg). The concentrations of enzymes were optimized to exhaustively cleave all cell surface HSGAGs in the given period of time. All enzymes and chemicals were diluted in serum free DMEM.
For microscopic analysis of endothelial cells, the differentiating J1 cells were fixed in cold methanol at designated time points, blocked in goat serum and probed overnight with a rabbit primary antibody against vWF, an endothelial cell marker, or Oct-4, a stem cell marker. The sections were washed and re-probed with a goat secondary antibody coupled to FITC. The nuclei were counterstained with propidium iodide. Images were captured using a […] LSM510 confocal microscope at a 512×512 pixels resolution (Leica, Bannockburn, Ill.). Fluorochromes were excited with 488 nm and 543 nm laser lines, and the images were captured using 505-530 BP and 565-615 BP filters at a 512×512 pixels resolution.
To dissect the role of HSGAG structure in ES cell differentiation, the cell surface and extracellular HSGAG moieties of differentiating ES cells were modified using an enzymatic and pharmacological approach. Specifically, differentiating ES cells were incubated with Hep-I or Hep-III for 30 minutes every day to cleave the cell surface and extracellular matrix (ECM) HSGAGs at structurally distinct sites, or cultured in media supplemented with sodium chlorate, which is a pharmacological inhibitor of HSGAG biosynthesis (Safaiyan, F., et al. (1999) J Biol Chem 274, 36267-73). Hep-I cleaves HSGAGs at highly sulfated regions, and Hep-III cleaves HSGAGs at undersulfated regions (Linhardt, R. J., et al. (1990) Biochemistry 29, 2611-7; Godavarti, R., and Sasisekharan, R. (1996) Biochem Biophys Res Commun 229, 770-7). […]

Experiment [2] has as its system phosphorylation of ERK1/2 (MAPK pathway). In words: Western blot of phospho-ERK normalized to total ERK1/2 in differentiating ES cells. The format is cell-based, mouse. The note with it: Western blot, FIGS. 14 and 18. On the procedure: as §1
For elucidating the biochemical pathways involved downstream of the modulation of the cell surface sugars, protein contents of the embryoid bodies were solubilized by rapid mixing with 3× SDS sample buffer under reducing conditions. Equivalent amounts of protein per sample were electrophoretically resolved on 4-12% gradient polyacrylamide gels and transferred onto a nitrocellulose (0.22 μm) membrane. The membrane was subsequently probed with a phosphor-ERK antibody (1:800 dilution, Cell Signaling Technologies, Danvers, Mass.), which specifically detects the phosphorylated forms of ERK1 and 2. The signal was amplified using a 1:2000 dilution of the appropriate horseradish peroxidase-conjugated secondary antibody (BioRad, Hercules, Calif.), and the immunocomplexes were visualized using enhanced chemiluminescence detection (Amersham Life Science, Piscataway, N.J.). The signal was normalized to the expression of total ERK1/2, which was detected on the same blot using ERK1/2 specific antibodies (Santa Cruz, Santa Cruz, Calif., used at a 1:200 dilution). Quantification of the luminescence signal was carried out by a Kodak 2000R imager.
The MAPK pathway is the downstream convergence point of the signaling of several angiogenic factors such as VEGF, FGF, HGF, EGF, PDGF and angiopoietins (Sengupta, S., et al. (2003) Arterioscler Thromb Vasc Biol 23, 69-75). […]
A general note: Immunoblotting shows a protein as a band on a membrane.

`[O-][Cl+2]([O-])O` [sodium chlorate, reference compound]: in experiment [1], the “vWF expression (confocal microscopy)” value is on record as “inhibitory effects” and the “Oct-4 levels of differentiating cells (confocal microscopy)” value (from here on “Oct-4 levels of differentiating cells”) was “none of the treatments had significant effects”. For the same molecule, in experiment [2], the “phosphorylation of ERK1/2” value is given as “inhibits”.

B1: Hep-I: HSGAG-degrading enzyme; cleaves HSGAGs at highly sulfated regions; gift of Momenta Pharmaceuticals (protein, UniProt Q05819 22-384, looked up)
Heparin lyase I: QQKKSGNIPYRVNVQADSAKQKAIIDNKWVAVGINKPYALQYDDKLRFNGKPSYRFELKAEDNSLEGYAAGETKGRTELSYSYATTNDFKKFPPSVYQNAQKLKTVYHYGKGICEQGSSRSYTFSVYIPSSFPDNATTIFAQWHGAPSRTLVATPEGEIKTLSIEEFLALYDRMIFKKNIAHDKVEKKDKDGKITYVAGKPNGWKVEQGGYPTLAFGFSKGYFYIKANSDRQWLTDKADRNNANPENSEVMKPYSSEYKTSTIAYKMPFAQFPKDCWITFDVAIDWTKYGKEANTILKPGKLDVMMTYTKNKKPQKAHIVNQQEILIGRNDDDGYYFKFGIYRVGNSTVPVTYNLSGYSETAR
On to B1, for which, in experiment [1], the “vWF expression (confocal microscopy)” value was “inhibitory effects” and the “Oct-4 levels of differentiating cells” value is “none of the treatments had significant effects”. Moreover, the “phosphorylation of ERK1/2” value in experiment [2] was “inhibits”.

B2: Hep-III: HSGAG-degrading enzyme; cleaves HSGAGs at undersulfated regions (protein, UniProt Q59289 25-659, looked up)
Heparin-sulfate lyase: QSSSITRKDFDHINLEYSGLEKVNKAVAAGNYDDAAKALLAYYREKSKAREPDFSNAEKPADIRQPIDKVTREMADKALVHQFQPHKGYGYFDYGKDINWQMWPVKDNEVRWQLHRVKWWQAMALVYHATGDEKYAREWVYQYSDWARKNPLGLSQDNDKFVWRPLEVSDRVQSLPPTFSLFVNSPAFTPAFLMEFLNSYHQQADYLSTHYAEQGNHRLFEAQRNLFAGVSFPEFKDSPRWRQTGISVLNTEIKKQVYADGMQFELSPIYHVAAIDIFLKAYGSAKRVNLEKEFPQSYVQTVENMIMALISISLPDYNTPMFGDSWITDKNFRMAQFASWARVFPANQAIKYFATDGKQGKAPNFLSKALSNAGFYTFRSGWDKNATVMVLKASPPGEFHAQPDNGTFELFIKGRNFTPDAGVFVYSGDEAIMKLRNWYRQTRIHSTLTLDNQNMVITKARQNKWETGNNLDVLTYTNPSYPNLDHQRSVLFINKKYFLVIDRAIGEATGNLGVHWQLKEDSNPVFDKTKNRVYTTYRDGNNLMIQSLNADRTSLNEEEGKVSYVYNKELKRPAFVFEKPKKNAGTQNFVSIVYPYDGQKAPEISIRENKGNDFEKGKLNLTLTINGKQQLVLVP
As to B2, in experiment [1], the “vWF expression (confocal microscopy)” value was “inhibitory effects” and the “Oct-4 levels of differentiating cells” value is recorded as “none of the treatments had significant effects”. Further, in experiment [2], the “phosphorylation of ERK1/2” value is listed as “inhibits”.

For the origin of these results see patent US20100119494A1, “METHODS AND COMPOSITIONS RELATED TO MODULATING THE EXTRACELLULAR STEM CELL ENVIRONMENT” (Massachusetts Institute of Technology, priority 2005, published 2010).
